The term Kd denotes the free concentration of one partner at which half of the binding sites on the other are occupied at equilibrium, for simple one-to-one binding. In general, koff refers to a measure of how fast the partners let go of each other. The kon is a measure of how fast the partners come together.

The target of assay [1] is T1, MUC1 peptide (15 aa+cystein, APDTRPAPGSTAPPAC) (human).
T1 construct: If the listing entry has only 15 residues, a C-terminal Cys must be added; Immobilized on the SPR chip; also called synthetic MUC1 peptide
T1 peptide: APDTRPAPGSTAPPAC
Nature of the assay: SPR, scFv 2-200 nM over immobilized MUC1 peptide, Chip 1 (47 RU). For orientation: SPR reads the build-up and loss of mass on a sensor chip optically.

Assay [2] concerns the target T2, 32-mer MUC1 peptide (human).
T2 construct: also called MUC1 peptide antigen (32mer cys); MUC1 peptide (32 mer cys)
T2 peptide: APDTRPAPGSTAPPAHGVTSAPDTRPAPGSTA
Nature of the assay: titration ELISA, MUC1 peptide (32mer Cys) 50 ng/well, IgG diluted 1:3.16 from 100 µg/mL, detection goat anti-human IgG (Fc) HRP, TMB; mean of three plates, BSA value subtracted; A450-A620. The method, then: 3× Nunc Maxisorp plates coated with 50 ng/well MUC1 peptide antigen (32mer cys, sequence: […]) [0227] Control plate was coated with 100 ng/well BSA [0228] Blocking solution: 2% skim milk powder in PBS-T (0.1% Tween), 1 h, RT [0229] IgG samples were diluted to a final concentration of 100 μg/ml with blocking solution [0230] samples were sequentially diluted 1:3.16 [0231] detection: goat anti-human IgG (Fc spec) HRP conjugate (Sigma, 1:39000), 1 h, RT [0232] Development: TMB substrate, reaction stopped with sulfuric acid after 10 minutes. [0233] A450-A620 measured in a Tecan Sunrise Reader [0234] […] Mean value and standard deviation of three plates (MUC1) calculated [0236] BSA value (negative control) subtracted from mean value [0237] Plotting: [0238]
(In an ELISA, binding on a coated surface is turned into a signal by an enzyme label.)

In assay [3] the target is T2, 32-mer MUC1 peptide. Kind of assay: ELISA, 32-mer MUC1 peptide immobilized in microtitre wells, IgG about 0.03 to 8000 ng/well, A450-A620 (preliminary results according to the legend). The method, then: (§1) This analysis was done using the ELISA technique wherein the 32-mer MUC1 peptide is immobilized in the wells of a microtitre plate, and wherein the anti-MUC1 antibodies are added later in different concentrations.

The target of assay [4] is T2, 32-mer MUC1 peptide. Kind of assay: ELISA, IgG on coated 32-mer MUC1 peptide. The method, then:
as §1

For assay [5], the target named is T1, MUC1 peptide (15 aa+cystein, …). Nature of the assay: SPR, scFv over immobilized MUC1 peptide, Chip 2 (14 RU).
The target is the same in assay [6]. Kind of assay: SPR, scFv over immobilized MUC1 peptide, Chip 2 (14 RU); Chip 2 (14 RU MUC1 peptide).

B1: HT220-M-D1 scFv (scFv)
scFv: QMLLVQSGAEAKKPGASVKVSCKASGYTFTGHYMHWVRQAPGQGLEWMGWIDPVTGGTKYAQNFQGWVTMTRDTSIRTAYMELSRLRPDDTAMYYCAREVTGDRGQFDKWGQGTLVTVASASTKGPSVKLEEGEFSEARVQSVLTQPPSVSVVPGKTARIICGGNNIGSKSVHWYQQKPGQAPVLVIYNNSDRPSGIPERFSGSNSGNMATLTISRVEAGDESDYYCQVWDSSSDWVFGGGTRLTILGQSKAAPSVTLFPPS
notes: scFv as VH-truncated CH1-linker-VL-truncated CL, made in the E. coli periplasm and purified by its His-tag; not shown: C-terminal His-tag used for purification and detection
For the molecule B1, in assay [1], the Ka is 2.8e+08 M⁻¹, the Kd turned out to be 3.7 nM, the koff amounted to 0.00011 s⁻¹ and the on-rate (kon) is 29000 M⁻¹ s⁻¹.

B2: R764-B7 (HT186-B7 IgG) (antibody, V domains shown)
VH: QMQLVQSGAEVKKPGASVKVSCKASGYTFTGHYMHWVRQAPGQGLEWMGWIDPVTGGTKYAQNFQGWVTMTRDTSIRTAYMELSRLRSDDTAMYYCAREVTGDRGQFDKWGQGTLVTVAS
VL: QSVLTQPPSVSVAPGKTARITCGGNNIGSKSVHWYQQKPGQAPALVIYYGSYRPSGIPERFSGSNYGNTATLTIRRVEAGDEADYYCQVWDSSSDWVFGGGTKLTVLG
notes: Human IgG1, lambda, produced in YB2/0 cells
On to B2, for which the “EC50 (read off the curve)” value with 32-mer MUC1 peptide [2] is around 0.1 µg/mL; with 32-mer MUC1 peptide [3] it was around 10 ng/well. For the same molecule, the “fold stronger binding than R764-G2 and R764-hHMFG1” value with 32-mer MUC1 peptide [4] turned out to be 10 times.

B3: R764-D11 (HT186-D11 IgG) (antibody, V domains shown)
VH: QMQLVQSEAELKKPGASVKVSCKASGYSFTGHYMHWVRQAPGQGLEWMGWIDPVTGGTKYAQNFQGWVTMTRDTSIRTAYLELSRLRSDDTAMYYCAREVTGDRGQFDKWGQGTLVTVAS
VL: QSVLTQPPSVSVAPGKTARITCGGNNIGSKSVHWYQQKPGQAPALVIYYGSNRPSGIPERFSGSNSGNTATLTISRVEAGDEADYYCQVWDSSSDWVFGGGTKLTVLG
notes: Human IgG1, lambda, produced in YB2/0 cells; also called R764 HT186-D11
B3: the “EC50 (read off the curve)” value is around 0.1 µg/mL with 32-mer MUC1 peptide [2] and around 10 ng/well with 32-mer MUC1 peptide [3]. The “fold stronger binding than R764-G2 and R764-hHMFG1” value with 32-mer MUC1 peptide [4] came out at 10 times.

B4: HT186-B7 scFv (scFv)
scFv: QMQLVQSGAEVKKPGASVKVSCKASGYTFTGHYMHWVRQAPGQGLEWMGWIDPVTGGTKYAQNFQGWVTMTRDTSIRTAYMELSRLRSDDTAMYYCAREVTGDRGQFDKWGQGTLVTVASASTKGPSVKLEEGEFSEARVQSVLTQPPSVSVAPGKTARITCGGNNIGSKSVHWYQQKPGQAPALVIYYGSYRPSGIPERFSGSNYGNTATLTIRRVEAGDEADYYCQVWDSSSDWVFGGGTKLTVLGQPKAAPSVTLFPPS
notes: as for B1
With B4, in assay [1], the Ka turned out to be 7.5e+08 M⁻¹, the Kd was 1.3 nM, the koff was 4.6e-05 s⁻¹ and the kon came out at 35000 M⁻¹ s⁻¹. In assay [5], this molecule had a Ka of 6.3e+08 M⁻¹, a Kd of 1.6 nM, a koff of 0.00014 s⁻¹ and an on-rate constant (kon) of 90000 M⁻¹ s⁻¹.

B5: HT220-M-G8 scFv (scFv)
scFv: QMQLVQSGAEVMKPGASVKVSCKASGYSFTGHYMHWVRHAPGQGLEWMGWIDPVTGSTKYAQNFQGWVTMTRDTSISTAYMELSRLRSDDTAMYYCAREVTGDRGQFDKWGQGTLVTVASASTKGPSVKLEEGEFSEARVQSVLTQPPSVSVAPGKTARITCGGNNIGSKSVHWYQQKPGQAPVLVIYYGSDRPSGIPERFSGSNTGNMATLTISRVEAGDEADYYCQVWDSSSDWVFGGGTKLTVLGQPKAAPSVTLFPPS
notes: as for B1
In assay [1], B5 gave a Ka of 2.3e+08 M⁻¹, a Kd of 4.4 nM, an off-rate (koff) of 0.00022 s⁻¹ and a kon of 50000 M⁻¹ s⁻¹.

B6: HT186-G2 scFv (scFv)
scFv: RMQLVQSGAEVKKPGASVKLSCKASGYTFAGHYMHWVRQAPGRGLEWMGWIDPVTGGTKYAQNFQGWVTMTRDTSIRTAYMELSRLRSDDTAMYYCAREVTGDRGQFDKWGQGTLVTVASASTKGPSVKLEEGKFLEAHVQSVLTQPPSVSVAPGKTARITCGGNNIGSKSVHWYQQKPGQAPVLVIYYGSDRSSGIPERFSGSNSGNTATLTISRVEAGDEADYYCQVWDSSSDWVFGGGTKLTVLGQPKAAPSVTLFPPS
notes: as for B1
In assay [1], B6 came in with a Ka of 1e+09 M⁻¹, a Kd of 1 nM, a koff of 7.2e-05 s⁻¹ and an on-rate (kon) of 72000 M⁻¹ s⁻¹. Besides, in assay [5], the Ka came to 6.6e+08 M⁻¹, binding was put at a Kd of 1.5 nM, the koff came out at 0.00011 s⁻¹ and the on-rate constant (kon) came out at 73000 M⁻¹ s⁻¹.

B7: HT186-D11 scFv (scFv)
scFv: QMQLVQSEAELKKPGASVKVSCKASGYSFTGHYMHWVRQAPGQGLEWMGWIDPVTGGTKYAQNFQGWVTMTRDTSIRTAYLELSRLRSDDTAMYYCAREVTGDRGQFDKWGQGTLVTVASSSTKGPSVKLEEGEFSEARVQSVLTQPPSVSVAPGKTARITCGGNNIGSKSVHWYQQKPGQAPALVIYYGSNRPSGIPERFSGSNSGNTATLTISRVEAGDEADYYCQVWDSSSDWVFGGGTKLTVLGQPKAAPSVTLFPSS
notes: as for B1
Turning to B7, in assay [1], the Ka is 1.8e+09 M⁻¹, the Kd was determined as 0.57 nM, the dissociation rate constant (koff) was found to be 2.1e-05 s⁻¹ and the on-rate constant (kon) came out at 38000 M⁻¹ s⁻¹. For the same molecule, the Ka in assay [5] was 1.5e+09 M⁻¹. Further, binding in assay [6] was characterised by a dissociation constant (Kd) of 0.65 nM.

B8: HT200-3A-C1 scFv (scFv)
scFv: QMQLVQSGAEVKKPGASVKVSCKASGYTFTGHYMHWVRQAPGQGLEWMGWIDPVTGGTKYAQNFQGWVTMTRDTSIRTAYMELSRLRSDDTAMYYCAREVTGDRGQFDKWGQGTLVTVASASTKGPSAKLEEGEFSEARVQSVLTQPPSVSMAPGETARITCGGNNIGSKSVHWYQQKPGQAPVLVIYNDSDRPSGIPERFSGSNSGKTATLTISRVEAGDEADYYCQVWDSSIDWVFGGGTKLTVLGQPKAAPSVTLFPPS
notes: as for B1
With B8, in assay [1], the Ka came to 4.8e+08 M⁻¹, binding was put at a Kd of 2.1 nM, the koff was 0.0001 s⁻¹ and the kon was determined as 49000 M⁻¹ s⁻¹.

The values are drawn from patent US20110318757A1 (MAB FACTORY, published 2011).
